B1: Centriolar coiled-coil protein of 110 kDa (Homo sapiens), O43303-2 (parent)
chain: MEEYEKFCEKSLARIQEASLSTESFLPAQSESISLIRFHGVAILSPLLNIEKRKEMQQEKQKALDVEARKQVNRKKALLTRVQEILDNVQVRKAPNASDFDQWEMETVYSNSEVRNLNVPATFPNSFPSHTEHSTAAKLDKIAGILPLDNEDQCKTDGIDLARDSEGFNSPKQCDSSNISHVENEAFPKTSSATPQETLISDGPFSVNEQQDLPLLAEVIPDPYVMSLQNLMKKSKEYIEREQSRRSLRGSINRIVNESHLDKEHDAVEVADCVKEKGQLTGKHCVSVIPDKPSLNKSNVLLQGASTQASSMSMPVLASFSKVDIPIRTGHPTVLESNSDFKVIPTFVTENNVIKSLTGSYAKLPSPEPSMSPKMHRRRSRTSSACHILINNPINACELSPKGKEQAMDLIIQDTDENTNVPEIMPKLPTDLAGVCSSKVYVGKNTSEVKEDVVLGKSNQVCQSSGNHLENKVTHGLVTVEGQLTSDERGAHIMNSTCAAMPKLHEPYASSQCIASPNFGTVSGLKPASMLEKNCSLQTELNKSYDVKNPSPLLMQNQNTRQQMDTPMVSCGNEQFLDNSFEKVKRRLDLDIDGLQKENCPYVITSGITEQERQHLPEKRYPKGSGFVNKNKMLGTSSKESEELLKSKMLAFEEMRKRLEEQHAQQLSLLIAEQEREQERLQKEIEEQEKMLKEKKAMTAEASELDINNAVELEWRKISDSSLLETMLSQADSLHTSNSNSSGFTNSAMQYSFVSANEAPFYLWGSSTSGLTKLSVTRPFGRAKTRWSQVFSLEIQAKFNKITAVAKGFLTRRLMQTDKLKQLRQTVKDTMEFIRSFQSEAPLKRGIVSAQDASLQERVLAQLRAALYGIHDIFFVMDAAERMSILHHDREVRKEKMLRQMDKMKSPRVALSAATQKSLDRKKYMKAAEMGMPNKKFLVKQNPSETRVLQPNQGQNAPVHRLLSRQGSICRKNPKKAAKCCDNLRRQHSLG
partner: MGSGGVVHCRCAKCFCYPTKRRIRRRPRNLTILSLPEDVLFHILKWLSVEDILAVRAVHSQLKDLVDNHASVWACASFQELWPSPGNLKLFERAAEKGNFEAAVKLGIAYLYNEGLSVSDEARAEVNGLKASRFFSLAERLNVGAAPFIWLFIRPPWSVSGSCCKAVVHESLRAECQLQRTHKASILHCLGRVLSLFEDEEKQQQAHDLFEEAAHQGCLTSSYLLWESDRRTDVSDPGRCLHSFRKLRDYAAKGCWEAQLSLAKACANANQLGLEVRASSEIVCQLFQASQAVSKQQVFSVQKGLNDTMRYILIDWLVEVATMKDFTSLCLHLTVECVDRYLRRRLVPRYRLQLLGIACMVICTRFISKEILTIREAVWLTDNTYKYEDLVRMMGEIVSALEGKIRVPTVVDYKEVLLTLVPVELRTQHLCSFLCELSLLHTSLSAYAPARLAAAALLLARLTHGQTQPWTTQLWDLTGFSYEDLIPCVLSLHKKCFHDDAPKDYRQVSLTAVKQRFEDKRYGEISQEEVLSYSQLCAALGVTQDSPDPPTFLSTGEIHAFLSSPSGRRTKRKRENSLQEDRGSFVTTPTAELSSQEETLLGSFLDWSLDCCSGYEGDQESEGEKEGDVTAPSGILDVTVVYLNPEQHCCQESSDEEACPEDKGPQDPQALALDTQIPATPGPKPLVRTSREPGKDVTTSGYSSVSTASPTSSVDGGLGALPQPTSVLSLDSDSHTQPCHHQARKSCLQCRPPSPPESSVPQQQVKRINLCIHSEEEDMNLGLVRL
B2: Cyclin-F (Homo sapiens), P41002 (parent)
chain: B1 partner

Variants of: B1
Conditions: with ccnf_human CCNF

| effect of a mutation on the interaction | Variant |
| --- | --- |
| disrupting interaction | L588A;L590A |

Variants of: B2
Conditions: with cp110_human CCP110, O43303

| effect of a mutation on the interaction | Variant |
| --- | --- |
| disrupting interaction | M309A;L313A |

Variants of: B2
Conditions: with cul1_human CUL1, Q13616
Chain of cul1_human CUL1, Q13616 (Q13616 whole entry): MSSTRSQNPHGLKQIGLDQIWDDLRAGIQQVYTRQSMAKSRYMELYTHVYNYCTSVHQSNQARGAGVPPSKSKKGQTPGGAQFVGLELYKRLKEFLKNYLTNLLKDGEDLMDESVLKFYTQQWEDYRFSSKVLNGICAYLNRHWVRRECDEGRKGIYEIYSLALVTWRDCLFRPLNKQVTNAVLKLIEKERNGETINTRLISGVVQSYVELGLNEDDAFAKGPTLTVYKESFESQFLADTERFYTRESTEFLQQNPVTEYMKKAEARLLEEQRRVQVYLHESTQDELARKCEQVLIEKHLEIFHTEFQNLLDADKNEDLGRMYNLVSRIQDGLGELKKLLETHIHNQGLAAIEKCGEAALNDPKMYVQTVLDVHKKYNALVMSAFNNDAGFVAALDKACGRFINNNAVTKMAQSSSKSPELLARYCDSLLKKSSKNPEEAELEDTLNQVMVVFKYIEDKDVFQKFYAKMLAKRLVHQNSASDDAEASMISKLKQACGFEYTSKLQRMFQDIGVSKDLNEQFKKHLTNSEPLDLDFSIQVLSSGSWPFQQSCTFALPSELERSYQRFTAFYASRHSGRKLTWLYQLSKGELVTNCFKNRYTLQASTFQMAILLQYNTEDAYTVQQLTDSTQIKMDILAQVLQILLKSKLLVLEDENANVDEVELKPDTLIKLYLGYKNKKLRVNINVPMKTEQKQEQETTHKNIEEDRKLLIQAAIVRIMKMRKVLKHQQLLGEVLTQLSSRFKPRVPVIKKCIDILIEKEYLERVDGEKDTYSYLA

| effect of a mutation on the interaction | Variant |
| --- | --- |
| disrupting interaction | L35A;P36A |
